{"source": "paper PMC4227789", "about": "(Nucleic Acids Research, 2014)", "binders": {"B1": {"name": "p53 DBD nanobody 139, recombinant V5-tagged (VHH)", "VHH": "QVQLQESGGGLVQAGGSLRLSCAASERTFSTYAMGWFRQAPGREREFLAQINWSGTTTYYAESVKDRTTISRDNAKNTVYLEMNNLNADDTGIYFCAAHPQRGWGSTLGWTYWGQGTQVTVSS"}}, "target": "p53 DNA-binding domain (residues 92-312), recombinant untagged (Homo sapiens, UniProt P04637)", "sequence (P04637 92-312)": "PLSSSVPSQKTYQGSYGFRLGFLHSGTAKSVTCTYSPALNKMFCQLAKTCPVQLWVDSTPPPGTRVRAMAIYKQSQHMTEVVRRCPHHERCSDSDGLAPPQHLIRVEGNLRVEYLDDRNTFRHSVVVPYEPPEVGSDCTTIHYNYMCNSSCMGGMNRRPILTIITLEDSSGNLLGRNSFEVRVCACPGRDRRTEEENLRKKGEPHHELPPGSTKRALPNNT", "test": "ITC"}
{"binder": "B1", "values": [{"measurement": "Kd", "result": "~1", "unit": "µM"}, {"measurement": "stoichiometry N", "result": 1}]}
